# Reference: patent US20220324955A1
# Target: human neonatal Fc-receptor (FcRn) (human) (UniProt P55899)
# Test: FcRn affinity column chromatography
retention time [min],FcRn-affinity column retention time [min],Substance
52,,"anti-HER2 antibody, symmetric mutation N434H"
46.3,,"anti-HER2 antibody, symmetric mutation Q311H"
45.5,,"anti-HER2 antibody, symmetric mutation L309H"
46.4,,"anti-HER2 antibody, symmetric mutation E430H"
,41.3,IgG1 Fc-region with L234A/L235A/P329G and symmetric Y436A
46.2,,"anti-HER2 antibody, symmetric mutation K290H"
41.4,,"anti-HER2 antibody, symmetric mutation R255D"
45.2,,"anti-HER2 antibody, symmetric mutation K288E"
46.3,,"anti-HER2 antibody, symmetric mutation K317H"
46,,"anti-HER2 antibody, symmetric mutation T256H"
